Kd (NEF108): 5.3 nM
Kd (NEF163): 3.5 nM
Kd (NEF172): 10.9 nM
B1: hIL-6Rα on hIL-6Rα-transfected HEK293T cells (receptor)
chain: LAPRRCPAQEVARGVLTSLPGDSVTLTCPGVEPEDNATVHWVLRKPAAGSHPSRWAGMGRRLLLRSVQLHDSGNYSCYRAGRPAGTVHLLVDVPPEEPQLSCFRKSPLSNVVCEWGPRSTPSLTTKAVLLVRKFQNSPAEDFQEPCQYSQESQKFSCQLAVPEGDSSFYIVSMCVASSVGSKFSKTQTFQGCGILQPDPPANITVTAVARNPRWLSVTWQDPHSWNSSFYRLRFELRYRAERSKTFTTWMVKDLQHHCVIHDAWSGLRHVVQLRAQEEFGQGEWSEWSPEAMGTPWTESRSPPAENEVSTPMQALTTNKDDDNILFRDSANATSLPVQDSSSVPLPTFLVAGGSLAFGTLLCIAIVLRFKKTWKLRALKEGKTSMHPPYSLGQLVPERPRPTPVLVPLISPPVSPSSLGSDNTSSHNRPDARDPRSPYDISNTDYFFPR
